The results in this text go back to US20130202608A1.

What all share (experiment): cell-based or functional assay
Experiment [1] has as its target hemagglutinin of A/Common iora/Indonesia/F89/H7N1 (influenza A virus A/Common iora/Indonesia/F89 (H7N1)).
Experiment [2] addresses hemagglutinin of A/Indonesia/CDC669/2006 (H5N1, clade 2.1) (influenza A virus A/Indonesia/CDC669/2006 (H5N1)).
In experiment [3] the target is hemagglutinin of A/Indonesia/TLL013/2006 (H5N1, clade 2.1) (influenza A virus A/Indonesia/TLL013/2006 (H5N1)).
Experiment [4] addresses hemagglutinin of A/Indonesia/TLL014/2006 (H5N1, clade 2.1) (influenza A virus A/Indonesia/TLL014/2006 (H5N1)).
The target in experiment [5] is hemagglutinin of A/chicken/Singapore/Sg02 H3N2 (influenza A virus A/chicken/Singapore/Sg02 (H3N2)).

B1: murine monoclonal antibody 4C2 (antibody, V domains shown)
VH: QESGAELVRPGASVKLSCKDSGYTFTTYWMNWVKQRPEQGLEWIGRIDPYDSETHYNQKFKDKAILTVDKSSNTAYMQLSSLTSEDSAVYYCVRGGSTVAYFGVWGQG
VL: MTQSPSSMSVSLGDTVSITCHASQDISGHIGWLQQKPGKSFKGLIYHGTNLEDGVPSRFSGSGSGADFSLTISSLESEDFADYYCVQYVQFPWTFGGGTK
As to B1, the HI titer (titer (mAb at 1 mg/ml)) is under 4 in experiment [1]; 512 in experiment [2]; 512 in experiment [3]; 512 in experiment [4]; under 4 in experiment [5]. Further, the Microneutralization titers against H5N1 strains in experiment [1] is under 10; in experiment [2], 320; in experiment [3], 640; in experiment [4], 320; in experiment [5], under 10.
